# Source: patent publication US20140221613A1
# Values joined by “and” are separate entries in the source; they are usually repeats but may differ in a detail not shown here. Equal values may be shown once.
# How the values were obtained:
# [1] = target: IgG1 type humanized monoclonal antibody
# [2] = target: IgG1 type humanized monoclonal antibody; remark: listed apart in the source
# [3] = target: IgG1 type humanized monoclonal antibody; remark: listed apart in the source
# [4] = target: IgG1 type humanized monoclonal antibody; assay: SPR, IgG1 antibody immobilised, pH 7.4
# [5] = target: Fc region of human immunoglobulin (human); assay: pH 4.5
# [6] = target: Fc region of human immunoglobulin (human); assay: pH 7.4
# [7] = target: Fc region of human immunoglobulin (human); assay: SPR, Fc immobilised, neutral region
# [8] = target: Fc region of human immunoglobulin (human); assay: SPR, Fc immobilised, weakly acidic region
# [9] = target: human immunoglobulin IgG
# [10] = target: human immunoglobulin IgG; remark: listed apart in the source
binder,measurement,setting,value
CGB19H-3D (designed binder) MAYYDPETGTWYSGGRDTYKLILNGKTLKGETTTEAVDAATAEKVFKHYANEHGVHGHWTYDPETKTFTVTERPEVIDASELTPAVDTYKLILNGKTLKGETTTEAVDAATAEKVFKHYANEHGVHGHWTYDPETKTFTVTERPEVIDASELTPAVDTYKLILNGKTLKGETTTEAVDAATAEKVFKHYANEHGVHGHWTYDPETKTFTVTERPEVIDASELTPAVGGGGCHHHHHH,Kd,[1],0.1 nM
same,Binding Rate of Antibody after Running Buffer for 10 min (Binding portion),[2],62.5% and 69.6%
same,"Dissociation Rate of Antibody at an acidic pH, pH2 (30s) later",[3],51.2% and 67.4%
same,"Dissociation Rate of Antibody at an acidic pH, pH3 (30s) later",[3],36.2% and 29.9%
same,"Dissociation Rate of Antibody at an acidic pH, pH5 (30s) later",[3],6.4% and 4.6%
same,fold avidity improvement against M-PG19,[4],190 fold
same,fold difference of the dissociation rate constant against M-PG19,[4],370 times
M-PG07 (designed binder) MDTYKLILNGKTLKGETTTEAVDAATAEKVFKQYANEHGVDGEWTYDPETKTFTVTE,Kd,[5],230 nM
same,Kd,[6],290 nM
M-PG19 (designed binder) MDTYKLILNGKTLKGETTTEAVDAATAEKVFKHYANEHGVHGHWTYDPETKTFTVTE,Kd,[1],19 nM
same,Kd,[5],1000 nM
same,Kd,[6],43 nM
same,fold of avidity in the neutral region against M-PG01,[7],11 times
same,fold of affinity in the acidic region against M-PG01,[8],0.6 times
OXADac-PG14 (designed binder) MGAGTPVTAPLAGTIWKVLASEGQTVAAGEVLLILEAMKMETEIRAAQAGTVRGIAVKAGDAVAVGDTLMTLAGSGSDLYDDDDKGIITSLYKKAGSAAAPFTDTYKLILNGKTLKGETTTEAVDAATAEKVFKQYANEHGVDGHWTYDPETKTFTVTE,Ratio of the remaining amount of antibody by SPR sensor gram at pH 4.0,[9],71%
same,koff,[9],0.04 s⁻¹
OXADac-PG20 (designed binder) MGAGTPVTAPLAGTIWKVLASEGQTVAAGEVLLILEAMKMETEIRAAQAGTVRGIAVKAGDAVAVGDTLMTLAGSGSDLYDDDDKGIITSLYKKAGSAAAPFTDTYKLILNGKTLKGETTTEAVHAATAEKVFKHYANEHGVHGHWTYDPETKTFTVTE,Ratio of the remaining amount of antibody by SPR sensor gram at pH 4.0,[9],58%
OXADac-PG16 (designed binder) MGAGTPVTAPLAGTIWKVLASEGQTVAAGEVLLILEAMKMETEIRAAQAGTVRGIAVKAGDAVAVGDTLMTLAGSGSDLYDDDDKGIITSLYKKAGSAAAPFTDTYKLILNGKTLKGETITEAVDAATAEKVFKQYANEHGVDGEWTYDPETKTFTVTE,Ratio of the remaining amount of antibody by SPR sensor gram at pH 4.0,[9],94%
same,koff,[9],0.00013 s⁻¹
OXADac-PG07 (designed binder) MGAGTPVTAPLAGTIWKVLASEGQTVAAGEVLLILEAMKMETEIRAAQAGTVRGIAVKAGDAVAVGDTLMTLAGSGSDLYDDDDKGIITSLYKKAGSAAAPFTDTYKLILNGKTLKGETTTEAVDAATAEKVFKQYANEHGVDGEWTYDPETKTFTVTE,Ratio of the remaining amount of antibody by SPR sensor gram at pH 4.0,[9],93%
same,koff,[9],0.00011 s⁻¹
OXADac-PG17 (designed binder) MGAGTPVTAPLAGTIWKVLASEGQTVAAGEVLLILEAMKMETEIRAAQAGTVRGIAVKAGDAVAVGDTLMTLAGSGSDLYDDDDKGIITSLYKKAGSAAAPFTDTYKLILNGKRLKGETITEAVDAATAEKVFKQYANEHGVDGEWTYDPETKTFTVTE,Ratio of the remaining amount of antibody by SPR sensor gram at pH 4.0,[9],86%
same,koff,[9],0.032 s⁻¹
OXADac-PG19 (designed binder) MGAGTPVTAPLAGTIWKVLASEGQTVAAGEVLLILEAMKMETEIRAAQAGTVRGIAVKAGDAVAVGDTLMTLAGSGSDLYDDDDKGIITSLYKKAGSAAAPFTDTYKLILNGKTLKGETTTEAVDAATAEKVFKHYANEHGVHGHWTYDPETKTFTVTE,Ratio of the remaining amount of antibody by SPR sensor gram at pH 4.0,[9],38%
same,koff,[9],0.27 s⁻¹
same,increase of the dissociation rate constant against the wild-type,[10],1000 fold
same,percent of adsorbed IgG dissociated at pH 4.0,[10],60%
OXADac-PG13 (designed binder) MGAGTPVTAPLAGTIWKVLASEGQTVAAGEVLLILEAMKMETEIRAAQAGTVRGIAVKAGDAVAVGDTLMTLAGSGSDLYDDDDKGIITSLYKKAGSAAAPFTDTYKLILNGKTLKGETTTEAVDAATAEKVFKQYANEHGVHGEWTYDPETKTFTVTE,Ratio of the remaining amount of antibody by SPR sensor gram at pH 4.0,[9],64%
same,koff,[9],0.06 s⁻¹
OXADac-PG15 (designed binder) MGAGTPVTAPLAGTIWKVLASEGQTVAAGEVLLILEAMKMETEIRAAQAGTVRGIAVKAGDAVAVGDTLMTLAGSGSDLYDDDDKGIITSLYKKAGSAAAPFTDTYKLILNGKRLKGETTTEAVDAATAEKVFKQYANEHGVDGEWTYDPETKTFTVTE,Ratio of the remaining amount of antibody by SPR sensor gram at pH 4.0,[9],90%
same,koff,[9],0.00044 s⁻¹
CGB19H-1D (designed binder) MAYYDPETGTWYSGGRDTYKLILNGKTLKGETTTEAVDAATAEKVFKHYANEHGVHGHWTYDPETKTFTVTERPEVIDASELTPAVGGGGSGGGGSGGGGSGGGGCHHHHHH,Binding Rate of Antibody after Running Buffer for 10 min (Binding portion),[2],52.6%
same,"Dissociation Rate of Antibody at an acidic pH, pH2 (30s) later",[3],52.7%
same,"Dissociation Rate of Antibody at an acidic pH, pH3 (30s) later",[3],35.1%
same,"Dissociation Rate of Antibody at an acidic pH, pH5 (30s) later",[3],7.1%
CGB19H-5D (designed binder) MAYYDPETGTWYSGGRDTYKLILNGKTLKGETTTEAVDAATAEKVFKHYANEHGVHGHWTYDPETKTFTVTERPEVIDASELTPAVDTYKLILNGKTLKGETTTEAVDAATAEKVFKHYANEHGVHGHWTYDPETKTFTVTERPEVIDASELTPAVDTYKLILNGKTLKGETTTEAVDAATAEKVFKHYANEHGVHGHWTYDPETKTFTVTERPEVIDASELTPAVDTYKLILNGKTLKGETTTEAVDAATAEKVFKHYANEHGVHGHWTYDPETKTFTVTERPEVIDASELTPAVDTYKLILNGKTLKGETTTEAVDAATAEKVFKHYANEHGVHGHWTYDPETKTFTVTERPEVIDASELTPAVGGGGSGGGGSGGGGSGGGGCHHHHHH,Binding Rate of Antibody after Running Buffer for 10 min (Binding portion),[2],65.2% and 82.7%
same,"Dissociation Rate of Antibody at an acidic pH, pH2 (30s) later",[3],63.4% and 81.8%
same,"Dissociation Rate of Antibody at an acidic pH, pH5 (30s) later",[3],5.6% and 2.1%
CGB19H-4D (designed binder) MAYYDPETGTWYSGGRDTYKLILNGKTLKGETTTEAVDAATAEKVFKHYANEHGVHGHWTYDPETKTFTVTERPEVIDASELTPAVDTYKLILNGKTLKGETTTEAVDAATAEKVFKHYANEHGVHGHWTYDPETKTFTVTERPEVIDASELTPAVDTYKLILNGKTLKGETTTEAVDAATAEKVFKHYANEHGVHGHWTYDPETKTFTVTERPEVIDASELTPAVDTYKLILNGKTLKGETTTEAVDAATAEKVFKHYANEHGVHGHWTYDPETKTFTVTERPEVIDASELTPAVGGGGSGGGGSGGGGSGGGGCHHHHHH,Binding Rate of Antibody after Running Buffer for 10 min (Binding portion),[2],59.4% and 77.8%
same,"Dissociation Rate of Antibody at an acidic pH, pH2 (30s) later",[3],55.6% and 76.3%
same,"Dissociation Rate of Antibody at an acidic pH, pH3 (30s) later",[3],34.6% and 18.6%
same,"Dissociation Rate of Antibody at an acidic pH, pH5 (30s) later",[3],6.9% and 3.7%
